Measured values taken from the DeepSol protein solubility set.

Assay: soluble on expression in E. coli; label from the status in PepcDB or PDB records

In the case of “GHMATIHPTAIVDEGARIGAHSRIWHWVHICGGAEIGEGCSLGQNVFVGNRVRIGNRVKIQNNVSVYDNVFLEDDVFCGPSMVFTNVYNPRAAIERKSEYRDTIVRQGATLGANCTVVCGATIGRYAFVGAGAVVNKDVPDFALVVGVPARQIGWMSRHGEQLDLPLRGNAEATCPHTGERYILTDGVCRLA”, the “soluble on expression in E. coli” value was “soluble”.

With “MGSDKIHHHHHHMPFQQGLLATPVPAHARHLFFTLQSPEALPAALDALLPQVDGKQLLLGVGAPLAKALGREIPGLRPFPLLDAAVENPSTQHALWLWLRGDERGDLLLRTQALEQALAPALSLADSVDGFLHRGGHDLTGYEDGTENPTDEEAVQAAIAADGSSFAAFQLWKHDLQYFKSLPQADQDNIIGRRLSDNEELDDAPASAHVKRTAQESFEPEAFMVRRSVSWADQRGAGLAFVALGKSFEAFEVQLRRMSGLEDGIIDGLYRFSRPLTGGYYWCPPMSETGVDLSPLLRA” the “soluble on expression in E. coli” value was “not soluble”.

In the case of “GAMGGMHLVGVLDIAKDILKANKRLADKNRKLLNKHGVVAFDFMGAIGSGKTLLIEKLIDNLKDKYKIACIAGDVIAKFDAERMEKHGAKVVPLNTGKECHLDAHLVGHALEDLNLDEIDLLFIENVGNLICPADFDLGTHKRIVVISTTEGDDTIEKHPGIMKTADLIVINKIDLADAVGADIKKMENDAKRINPDAEVVLLSLKTMEGFDKVLEFIEKSVKEVK”, the “soluble on expression in E. coli” value was “soluble”.

For “MNRDIGKNAERELVSILRGEGFNAVRIPTSNSSPNPLPDIFATKGNTLLSIECKSTWENKVKVKEHQVRKLLDFLSMFTMKGVPLIAIKFKQVHEWRVLVPEKAEDIIVTIDNSIPIEDLFKILEKRIEEKILTP”, the “soluble on expression in E. coli” value was “soluble”.

In the case of “MHHHHHHSSQEVGEHREITAEETAELLKNSHSVIITPGYGMAVAQAQYPVAEITEKLRARGINVRFGIHPVAGRLPGHMNVLLAEAKVPYDIVLEMDEINDDFADTDTVLVIGANDTVNPAAQDDPKSPIAGMPVLEVWKAQNVIVFKRSMNTGYAGVQNPLFFKENTHMLFGDAKASVDAILKAL”, the “soluble on expression in E. coli” value was “soluble”.

In the case of “MSPLTTFLTDAQQQTLHQLIVSARDSGANEEMVKESMDEYLAQILSPDRLQELKTAHDEFEAQRRGKRAAISASDKPEPKKVFDIIDQFTSDYQKFYEESSAVRNRNNIN”, the “soluble on expression in E. coli” value was “soluble”.

For “MTKGSPGDTPDKASDRAARGASDASDASDAWRRWHEQRVATVSAPYGPLALTGTHWLEDHPDGQLPDIPGRWTTDGDAVLLTAGRADGLTVDGRLLDGEARLTADRGPVGAARVARGERRLVVLVREGLWGVRDFDPAAPARRAFRGIAATPYDPRWSVPGRFTPYDTGRRSVRVPNADGRERGLALGGELAFELDGRAHTLQVGVEDDGSLWAVFADATSGSTSYRFRFLRPAAPDAEGRTTVDLNRALLPPCAFADHFVCPFPPPGNTLGARVEAGERELRLEHHHHHH”, the “soluble on expression in E. coli” value was “soluble”.

For “MTQTVDIENTDNVLSRRDSNAETQQMLRQRFETQPDLMPAQLASELGIAELEVVTALPQAQRVFLPLAHMDELLQSLPEWGSLTTIVMLSGSVFEFKGDFPQGKFAHGYYNLYSKGDGLHGHLKLDGMRAIALISRPFRGSESHSINFFGPQGEVVFKVYLGRDKQRVLFPDQVRRFKALAATFAD”, the “soluble on expression in E. coli” value was “soluble”.

In the case of “RARADKQHVLDMLFSAFEKHQYYNLKDLVDITKQPVVYLKEILKEIGVQNVKGIHKNTWELKPEYRHYQ”, the “soluble on expression in E. coli” value was “soluble”.

With “REGKASTVNPGNGNVPDAEDLQALFDVIYEVMPEPTVNVDGPLQAHVTNLDSSSFLGRIGLIRVHSGSLKKGQQVAWIHYDEEGNQHTKTAKIAELLRTVGVTRVPADEVVAGDIAAISGIDSIMIGDTLADLEHPVALPRITVDEPAISMTIGVNTSPLAGRGGGDKLTARVVKARLEQELIGNVSLRVLPTERPDAWEVQGRGEMALSVLVETMRREGFELTVGKPQVVTQTVDGKLFEPYEHMVIDIPSEYQGNVTQLMAARKGQMLSMDNISDEWVRMEYKVPARGLISFRTMFMTETRGTGIANSYSEGLDEWAGEIKGRATGSLVADRSGQITAYALQQLADRGNFFVEPGTEAYEGMVVGANNRDEDMDVNITREKKLTNMRSATADATVTLAKARSLSLDEAMEFCGQDECVEVTPDVLRVRKVILNATERGRARAREKARNK” the “soluble on expression in E. coli” value was “not soluble”.

In the case of “MMDNNITETEMKVGHPPANKVGGRRVVNRKDRKNSDSNDNANSEGSDEVVREIIDYDLPAKMERSYPTEAVKKVHEKPMPAIQPVHINRDANSGVHRFQPRKQTH”, the “soluble on expression in E. coli” value was “soluble”.

In the case of “MNVTSKPGELVPESDVAAIMRGTHGDPFRVLGMHGGGGAPLSVRVFAPQAAEVAVLGQGGEVLAPLERIGAEGFFAGTVPGEEKFPYRLRFVSGPHEWEADDPYRFPEVLG”, the “soluble on expression in E. coli” value was “not soluble”.

In the case of “MGGEGPGSDDIVKKMAQLMMQGAVMLDKTCPADGLPLFKLKTGDVVCPVHGKVVIVASDEEARDVEVEEIIREVRYRAARNVMKGLEEDNVDTVSKWLGVLETAERILAIRRGSRQGQGSVRGEGRESK”, the “soluble on expression in E. coli” value was “not soluble”.

With “GPGSMKIGVVLGSGGHTSEMLRAITEIPLSYWLDTRPFYVVSATDPHSASLASQLEQQRFERRVVVYTIPRAREVGQSYLMSIITTIRATLACFRFVCTEKPDVLLTNGPGVCVPVIAAAVCVASCAPWWYGRPAIVYMESFTCVSHLSLTGSLLAPWLADVFTVHWRALERAVARRRRRGTLVYVGSETARVTDGAPHRLRSLAAEQEAYALVTVGSTKFSSLVQAVVQPGVCATLHQRFGIKRLYVQHGTAEVVAPPEATLLPALPMAAGADASHPTQQWSCGGLLVEAFPYRPCLDAVIRGATLVITHAGAGTILEGLQAQRPLVVVPNRQLMSDHQLDLAEALANGGFLFCVQVAELAERLPLLDLTTLRPHGGMDAAQLQEALRLVLTGHSASGERAKAD” the “soluble on expression in E. coli” value was “not soluble”.

For “MIFVLDVGNTNAVLGVFEEGELRQHWRMETDRHKTEDEYGMLVKQLLEHEGLSFEDVKGIIVSSVVPPIMFALERMCEKYFKIKPLVVGPGIKTGLNIKYENPREVGADRIVNAVAGIHLYGSPLIIVDFGTATTYCYINEEKHYMGGVITPGIMISAEALYSRAAKLPRIEITKPSSVVGKNTVSAMQSGILYGYVGQVEGIVKRMKEEAKQEPKVIATGGLAKLISEESNVIDVVDPFLTLKGLYMLYERNANLQHEKGEHHHHHH”, the “soluble on expression in E. coli” value was “soluble”.

In the case of “MSLQQGDRVPAGLTLTNQAGESFRIGDYRGQTLVLTFIYTRCPLPTYCPLMSKQFAALQPQLRERYGEEAQLLSISFDPAYDTPQVLREYASKYTDRLDTWTFATGDSSQVERATGLFGVHAQKTGSEEITHNLTTALIGSEGHVRRLWRGNDWTPEDVRQAVAQVAEASEGHHHHHH”, the “soluble on expression in E. coli” value was “soluble”.

For “MAKKEIEPKTEQAKRLRLIRKSLQLHRDQIATRLGINKAIYDHAERGTTFPNVEFLTALSQQLKVNLNWFITGNGEMFTDMAKAKAAGFKPQAIPAGLMKRLGHLAYTTYRDAKITLPPEDVAELAAGLYGKLQELIYNINDMEEVEATLPLLKLHLKRQVEAEKAH”, the “soluble on expression in E. coli” value was “not soluble”.

In the case of “DKVTQSSPDQTVASGSEVVLLCTYDTVYSNPDLFWYRIRPDYSFQFVFYGDDSRSEGADFTQGRFSVKHILTQKAFHLVISPVRTEDSATYYCAFTLPPPTDKLIFGKGTRVTVEP”, the “soluble on expression in E. coli” value was “soluble”.

In the case of “MRRSKMTYLIGVDCGGTHIVGQTWTTAPEHLVQSVTGGPGNVVLDYSAAVTNLTTVLDQLTAAIPASQLGLILIGIAGIETAGRADQVQQTITQRYHANTQVISDAKLALLNGLAGADGALVIAGTGSVVYGRQAGKFLRVGGWGYVLGDEGSAYDISKRALKQVLTQTDNGQTSQLTAPLLAQLKVTDIAAAVQKFYAQDRQTNAQLAQLIAKLAEQQNSEAITVLVTSAQALAQQVVTLYQRFAESWPQRVALSGSVLQHNRLVRDTLTTTVHQSIPTIAFNDITTNNAHAVIYWHRWTQEEINSLEHHHHHH”, the “soluble on expression in E. coli” value was “not soluble”.

In the case of “MGSDKIHHHHHHMLATTIGSIAMRRRVSSLVKVRPAGAATQPALGLRVPLVALVQALAVAEHLNFRHAADALGISQSSVSTRIKQLEQDLGVQLFERRHRGVRLTEAGQHFLEHVATGIEHLDHAVRTAGAIARGERGRLRVGLYSSIFAGFLAELLGQFRGQYPTVDLQIMEGRARDTIRAVREARLDVAFVVGVPKVSDCHSKPLWTEALFVALPERHALAEAEGVTWPALSGASFLARTGGPGPQVHDHIVLRLAGHWCQPRIQRFDVERDTLMSMVAQGYGITLTSEAAAQVPFPGVVFRPVLDETELITFSALWSPHNRCQTLLHLLALAEQKSEGRSLGI”, the “soluble on expression in E. coli” value was “not soluble”.

For “MGSDKIHHHHHHMGELTIAKSAGFCFGVTRAVNMVYEAIEKENVPIYTYGPIIHNDEVVKDMEKNGVTVINDLDELSSHEKGVMIIRSHGISKAEYDRIKNCGFEVLNATCPFVSKIHRYVEDYSSKGYDIIIVGSPKHPEVCGIKGWADEKCHVTIINSPEDAENYMKNSTKKLCIVSQTTFNYNKFQDIVEIIAKKGYDITVLNTICNATEVRQTEARKVAQCSDVMIVIGDRHSSNTQKLFEICKNECKNTYYIQTSDEMDYTQIRSNNNVGITAGASTPNNIIEEVSKNVRNEL”, the “soluble on expression in E. coli” value was “not soluble”.

In the case of “MSLKRFYSLFALPLITAATWANEPLPDRQTELPAVKKENHGEYLQPRDLSKIPNTAFGDQVKRGYSLFVNSQQMRGKYVGNEQNCVNCHMEAGRKANAAPLWAAYMAYPAYRKKNDRVNSYADRIQGCFEYSMNGKAPAYDSPEIVALSAYAYWLAMGGLLDSYGMNDEAVPELDIKALQVGGKAQDFPLPDAIAQALPVKERGNLAGRGYPKIAAPKQEPSPERGALVYEKNCETCHRADGSGIKGTDGHSYIPPLWGEFAYNWGAGMHRINTAAYFIYENMPLGKSVQLTEQEAWDVAAYINSHERPQDPRFKGNVTANAEKYHQHQGYYGKTLNGKQIGKNAFASGTEGHHHHHH”, the “soluble on expression in E. coli” value was “not soluble”.

With “MSTCATVSRDLDEPLAGTAATARTWLLLEQPGPWGTKALTSSHLDQALGRALEAAAEGTGVRIALIRRPGRHADCGTPAVRQVYAAHTVPGNVWLHGAMTSDPEQLLDLDFTALGMGDPHTFDRLLGGRPHTGDPLALVCTNGKRDRCCALLGRPLAAELAASGVTGAWEVTHLGGHRFAPTLLILPFGYAYGRAEAPHIKEVLQGVREGRVVVEGCRGRSAWERPGQAAELAVRTAAHEYAADALTVVATDGTAPRWEVTVAHADGRLWRVIVAQGASLPPRPESCGSALGSPARMDVVAVRELIPTEIDATSR” the “soluble on expression in E. coli” value was “not soluble”.

In the case of “MKTDRLLADTKTIRYEETDLASLISAPYHFRCGIYLICTQGEAVVSTGVQKYIFNEQTELIFLTGGLLQVLETSGDLQVKMLMFPKEAFLNAMLPIDTPYFNYTHEHPCYHHTADERSQKTWRQINLWMDMAQMLFTEPMPQFRGQQEHNFLQSLLMWLFNTIPEKLAVSKQYSRTQLLCHRFMQLIREYSMHEHQVAFYAEKLCISSRYLHKITVRHLDGKKPKQLIDEQLVAEIKVLLNEPRLSVTEIAEQLHFPDQSYLTHFFKKNTGISPKEFRAIKNLG”, the “soluble on expression in E. coli” value was “not soluble”.

In the case of “MKKIDRVIESIQSRITEGRLKPGQKLPSIRQAVDEFGVSKNTVIEAYERLSARGLIRSVHGAGFFVCASTPAPLSKATQPAHIVEAVDRLTLLTAQLDQEKLPVRVGDGRPPQSWMNDALPLRMKGNIFKNFVGDPSGYGGVSGHLQLRELIAARSNRADMSVHPDQIVTTFGANHALDLIIRRYLEPGDVVLVDDPGYYPLLGKFKLAKIRAIGVPRTPTGPDLDVMETLAAAHGPKMFFTQSTCQNPTGSSMSLPVAHGVLQVAQRFGLMVIDNDPFTDLPGNAGVPLSALDAFNSVIAISSFSKLLSASFRVGYVIARPEVARELTELKLLTVVNSSRFSEMVIAELIKSQRYGRHLNKLVNRLEEARRDYHRKVRKLGLDVFCAQETGYYSFLQLPHTVDEGQLVRKASAAGIMLAPGRLFAVDENPARPALRINVTRADDPRFYRFLKRQVIDGQV”, the “soluble on expression in E. coli” value was “not soluble”.
